From patent publication US9273342B2, “Methods and systems for evaluating and predicting the reactivity of monooxygenase enzymes” (University of Rochester, priority 2011, dated 2016)
Where a chain is given by its changes, count along the chain named. “And” between values parts separate entries of the source, which are not always exact repeats. Equal entries are not always repeated.

B1: FL#41: engineered CYP102A1 variant used as reference P450 for fingerprint normalization, SEQ ID NO 3 (protein)
chain: MTIKEMPQPKTFGELKNLPLLNTDKPVQALMKIADELGEIFKFEAPGRVTRYLSSQRLIKEACDESRFDKNLSQALKFVRDFAGDGLATSWTHEKNWKKAHNILLPSFSQQAMKGYHAMMVDIAVQLVQKWERLNADEHIEVPEDMTRLTLDTIGLCGFNYRFNSFYRDQPHPFITSMVRALDEAMNKLQRANPDDPAYDENKRQFQEDIKVMNDLVDKIIADRKASGEQSDDLLTHMLNGKDPETGEPLDDENIRYQIITFLIAGHETTSGLLSFALYFLVKNPHVLQKAAEEAARVLVDPVPSYKQVKQLKYVGMVLNEALRLWPTAPAFSLYAKEDTVLGGEYPLEKGDELMVLIPQLHRDKTIWGDDVEEFRPERFENPSAIPQHAFKPFGNGQRACIGQQFALHEATLVLGMMLKHFDFEDHTNYELDIKETLTLKPEGFVVKAKSKKIPLGGIPSPSTEQSAKKVRKKAENAHNTPLLVLYGSNMGTAEGTARDLADIAMSKGFAPQVATLDSHAGNLPREGAVLIVTASYNGHPPDNAKQFVDWLDQASADEVKGVRYSVFGCGDKNWATTYQKVPAFIDETLAAKGAENIADRGEADASDDFEGTYEEWREHMWSDVAAYFNLDIENSEDNKSTLSLQFVDSAADMPLAKMHGAFSTNVVASKELQQPGSARSTRHLEIELPKEASYQEGDHLGVIPRNYEGIVNRVTARFGLDASQQIRLEAEEEKLAHLPLAKTVSVEELLQYVELQDPVTRTQLRAMAAKTVCPPHKVELEALLEKQAYKEQVLAKRLTMLELLEKYPACEMKFSEFIALLPSIRPRYYSISSSPRVDEKQASITVSVVSGEAWSGYGEYKGIASNYLAELQEGDTITCFISTPQSEFTLPKDPETPLIMVGPGTGVAPFRGFVQARKQLKEQGQSLGEAHLYFGCRSPHEDYLYQEELENAQSEGIITLHTAFSRMPNQPKTYVQHVMEQDGKKLIELLDQGAHFYICGDGSQMAPAVEATLMKSYADVHQVSEADARLWLQQLEEKGRYAKDVWAG
B2: Wild-type CYP102A1: fatty acid hydroxylase CYP102A1 from Bacillus megaterium, SEQ ID NO 1 (protein, listed as Bacillus megaterium)
chain: B1 chain with A88F
B3: FL#62: engineered variant of P450 monooxygenase CYP102A1, SEQ ID NO 15, parent of the libraries (protein)
chain: MTIKEMPQPKTFGELKNLPLLNTDKPVQALMKIADELGEIFKFEAPGRVTRYLSSQRLIKEACDESRFDKNLSQALKFARDSVGDGLATSWTHEKNWKKAHNILLPSFSQQAMKGYHAMMVDIAVQLVQKWERLNADEHIEVSEDMTRLTLDTIGLCGFNYRFNSFYRDQPHPFIISMVRTLDEVMNKLQRANPDDPVYDENKRQCQEDIKVMNDLVDKIIADRKARGEQSDDLLTQMLNGKDPETGEPLDDGNISYQIITFLIAGHETTSGLLSFALYFLVKNPHVLQKVAEEAARVLVDPVPSYKQVKQLKYVGMVLNEALRLWPTAPAFSLYAKEDTVLGGEYPLEKGDEVMVLIPQLHRDKTIWGDDVEEFRPERFENPSAIPQHAFKPFGNGQRACIGQQFALHEATLVLGMMLKHFDFEDHTNYELDIKETLTLKPEGFVVKAKSKKIPLGGIPSPSTEQSAKKVRKKAENAHNTPLLVLYGSNMGTAEGTARDLADIAMSKGFAPQVATLDSHAGNLPREGAVLIVTASYNGHPPDNAKQFVDWLDQASADEVKGVRYSVFGCGDKNWATTYQKVPAFIDETLAAKGAENIADRGEADASDDFEGTYEEWREHMWSDVAAYFNLDIENSEDNKSTLSLQFVDSAADMPLAKMHGAFSTNVVASKELQQPGSARSTRHLEIELPKEASYQEGDHLGVIPRNYEGIVNRVTARFGLDASQQIRLEAEEEKLAHLPLAKTVSVEELLQYVELQDPVTRTQLRAMAAKTVCPPHKVELEALLEKQAYKEQVLAKRLTMLELLEKYPACEMKFSEFIALLPSIRPRYYSISSSPRVDEKQASITVSVVSGEAWSGYGEYKGIASNYLAELQEGDTITCFISTPQSEFTLPKDPETPLIMVGPGTGVAPFRGFVQARKQLKEQGQSLGEAHLYFGCRSPHEDYLYQEELENAQSEGIITLHTAFSRMPNQPKTYVQHVMEQDGKKLIELLDQGAHFYICGDGSQMAPAVEATLMKSYADVHQVSEADARLWLQQLEEKGRYAKDVWAG

Tests used:
Type in all cases: biochemical
[1] = Fingerprinting: demethylation activity on methoxy probes 1-5, Purpald colorimetric assay; details: formaldehyde formation, FIG. 5A
Procedure: To test the viability of compounds I-5 as probes, the fatty acid hydroxylase CYP102A1 (SEQ ID NO 1) from Bacillus megaterium and […] engineered variants thereof (SEQ ID NO 3, SEQ ID NO 4, SEQ ID NO 5, SEQ ID NO 6, SEQ ID NO 8, SEQ ID NO 11, SEQ ID NO 12, SEQ ID NO 14, SEQ ID NO 15) were fingerprinted. […] Parallel reactions with 1-5 were carried out using these P450s in purified form and a NADPH cofactor regeneration system containing a […] (PTDH).
We investigated the utility of these probes for high-throughput profiling of a large library of engineered monooxygenase variants. […] The P450 libraries were expressed in 96-well plates (DH5a cells) and screened against probes 1-5 in parallel to acquire a fingerprint for each functional P450 variant occurring in these libraries. Reactions with the probes (1 mM, 60 min) were carried out using cell lysate in the presence of the phosphite/PTDH cofactor regeneration system, and probe activity was quantified based on absorbance at 550 nm after 60-min incubation with Purpald (30 mM). […] This example illustrates how probes of general formula II such as compound 1-5 could be used for fingerprinting a large library of monooxygenases in a high throughput manner.
Expression and Fingerprinting of P450 Libraries in 96-Well Plates. 96-deep well plates containing 400 μL LB medium (100 mg ampicillin L-1) per well were inoculated with single colonies from the P450 libraries. The total number of screened P450 variants was about 10,000. In each plate, 8 wells were inoculated with the parent enzyme FL#62. […] P450 demethylation activity on probe 1-5 was measured in parallel reactions with the aid of a Beckman Coulter Multimek 96 automated pipettor and a TECAN Infinity plate reader. […] After incubation for 1 hour at room temperature, plates were added with 50 μL 2 M NaOH containing 150 mM Purpald and the absorbance at 550 nm measured using the plate reader. The measured demethylation activity of each P450 variant on the five probes was then normalized to the activity of the parent enzyme FL#62 (SEQ ID NO 15) from the same plate. […]

[2] = Regio- and stereoselectivity (site-selectivity) of ART hydroxylation, product distribution by HPLC
Description: (§1) Additional 5,000 FL#62-derived variants were produced by simultaneous active-site mutagenesis and subjected to high throughout fingerprinting as described in Example 2. From the acquired fingerprint data, 259 functionally diverse variants (i.e., with a unique fingerprint) were isolated according to the procedure described in Example 2 and combined with the previously isolated 261 variants (Example 2), to yield a collection of 520 functionally diverse, fingerprinted monooxygenases. From this pool, twenty monooxygenases were randomly isolated to serve as the training set for generating a fingerprint model predictive of ART-reactivity and ranking the members of the monooxygenase library according to this reactivity property, as schematically illustrated in FIG. 13. The ART oxygenation activity of the training set P450s was characterized by LC-MS analysis of reactions with ART and each of these variants and quantified in terms of total turnovers (TTN). […] The fingerprints of the training set P450s (both ART-reactive and ART-unreactive) were then correlated with the measured ART activities (TTN values) by multiple linear regression (MLR) analysis, where ART activity is the dependent variable, Y, and the five components of their fingerprints (corresponding to the normalized activities on probes 1-5) are five independent variables (x1, x2, x3, x4, x5) potentially correlated with Y. This process yielded best-fit regression coefficients for the training set and a candidate fingerprint-based model (Y=0.44x1+0.52x2+0.44x3+0.72x4+0.47x5) predictive of ART-reactivity. Using this model, the remaining P450s in the 520-member collection of fingerprinted P450s were ranked (from highest to lowest predicted ART-reactivity). The 50 top-ranking variants as well as the 20 bottom-ranking variants were then tested experimentally in order to validate the predictions.
Measurement of Monooxygenase Activity on Artemisinin (ART). These isolated ART hydroxylation products were used as standards to generate calibration curves for quantifying ART-hydroxylation activity of FL#62 and the other monooxygenases. This activity was measured as total turnovers via quantification of the hydroxylation products from enzymatic reactions via derivatization with benzoyl chloride followed by HPLC analysis. Briefly, after the enzymatic reaction (0.5 mM ART, 1 μM P450 variant (purified or in cell lysate); 2 μM […], 100 μM NADP^+, 50 mM phosphoric acid), the mixture was added with 9-fluorenone as internal standard (0.5 mM) and extracted with dicholoromethane (0.2 mL). After removing the solvent, the residue was added with 0.1 mL dichloromethane, benzoyl chloride (5 equiv.), and DMAP (10 equiv.) for 3 hours at room temperature. The derivatized products (benzoyl esters) were analyzed using an Agilent 1200 UPLC. Analytical condition: Agilent XDB-C18 column (1.8 um, 4.4×50 mm); UV wavelength: 230 nm; Solvent A: 1% trifluoroacetic acid in deionized H2O; Solvent B: 1% formic acid in acetonitrile. gradient condition: 0-1 min: 20% B; 1-8 mins: 20% B to 90% B; 8-10 mins: 90% B; […]: 90% B to 20% B; 10.3-11.3 min: 20% B. Flow rate: 0.8 mL/min. The area under the curve (AUC) corresponding to the ART hydroxylated products were normalized to the internal standard AUC and used to quantify these products using the calibration curves. Total turnover numbers were calculated from number of mol hydroxylation products/mol enzyme. […]

[3] = Monooxygenase activity on artemisinin (ART), total turnovers by HPLC after benzoyl chloride derivatization; details: 0.5 mM ART, 1 μM P450 variant; mol hydroxylation products/mol enzyme
Description: as §1, with “From this pool, twenty monooxygenases were randomly isolated to serve as the training set for generating a fingerprint model predictive of ART-reactivity and ranking the members of the monooxygenase library according to this reactivity property, as schematically illustrated in FIG. 13.” left out, “Using this model, the remaining P450s in the 520-member collection of fingerprinted P450s were ranked (from highest to lowest predicted ART-reactivity). The 50 top-ranking variants as well as the 20 bottom-ranking variants were then tested experimentally in order to validate the predictions.” left out

Row | Molecule | probe activity on probes 1-5 (in words) [1] | selectivity for the desired site ((S)-C7 ART hydroxylation, regio- and stereoselectivity) [2] [%] | C6a-hydroxy-ART, share in product ratio C7(S):C7(R):C6a ([2]; ART hydroxylation products) | C7(R)-hydroxy-ART, share in product ratio C7(S):C7(R):C6a ([2]; ART hydroxylation products) | C7(S)-hydroxy-ART, share in product ratio C7(S):C7(R):C6a ([2]; ART hydroxylation products) | site-selectivity value for (S)-C7 ART hydroxylation ([2]; fraction used for the fingerprint-site reactivity correlation) | total turnovers (TTN) for ART hydroxylation [3]
1 | B1 | minimal yet detectable activity on all five probes | – | – | – | – | – | –
2 | B2 | no activity on three out of the five probes | – | – | – | – | – | –
3 | B3 | high activity on all the probes | 83 | 7 | 10 | 83 | 0.83 | 340 TTN and 339 TTN
